Tests used:
[1] = target: SHP2-C SH2; test: SH2 binding enrichment of the phosphorylated peptide, bacterial display (enrichment ratio); higher = better substrate or ligand; peptides without Tyr show the background
[2] = target: c-Src SH2; test: as above
[3] = target: Grb2 SH2 (UniProt P62993); test: as above
[4] = system: AncSZ; test: phosphorylation enrichment, bacterial display (enrichment ratio); higher = better substrate or ligand; peptides without Tyr show the background
[5] = target: Jak2 (UniProt O60674); test: as above
[6] = target: MERTK (UniProt Q12866); test: as above
[7] = system: c-Abl (mouse); test: as above
[8] = target: EPHB2 (UniProt P29323); test: as above
[9] = system: Fer (mouse); test: as above
[10] = system: c-Src; test: as above
[11] = target: EPHB1 (UniProt P54762); test: as above
EPHB1, sequence (P54762 whole entry, looked up): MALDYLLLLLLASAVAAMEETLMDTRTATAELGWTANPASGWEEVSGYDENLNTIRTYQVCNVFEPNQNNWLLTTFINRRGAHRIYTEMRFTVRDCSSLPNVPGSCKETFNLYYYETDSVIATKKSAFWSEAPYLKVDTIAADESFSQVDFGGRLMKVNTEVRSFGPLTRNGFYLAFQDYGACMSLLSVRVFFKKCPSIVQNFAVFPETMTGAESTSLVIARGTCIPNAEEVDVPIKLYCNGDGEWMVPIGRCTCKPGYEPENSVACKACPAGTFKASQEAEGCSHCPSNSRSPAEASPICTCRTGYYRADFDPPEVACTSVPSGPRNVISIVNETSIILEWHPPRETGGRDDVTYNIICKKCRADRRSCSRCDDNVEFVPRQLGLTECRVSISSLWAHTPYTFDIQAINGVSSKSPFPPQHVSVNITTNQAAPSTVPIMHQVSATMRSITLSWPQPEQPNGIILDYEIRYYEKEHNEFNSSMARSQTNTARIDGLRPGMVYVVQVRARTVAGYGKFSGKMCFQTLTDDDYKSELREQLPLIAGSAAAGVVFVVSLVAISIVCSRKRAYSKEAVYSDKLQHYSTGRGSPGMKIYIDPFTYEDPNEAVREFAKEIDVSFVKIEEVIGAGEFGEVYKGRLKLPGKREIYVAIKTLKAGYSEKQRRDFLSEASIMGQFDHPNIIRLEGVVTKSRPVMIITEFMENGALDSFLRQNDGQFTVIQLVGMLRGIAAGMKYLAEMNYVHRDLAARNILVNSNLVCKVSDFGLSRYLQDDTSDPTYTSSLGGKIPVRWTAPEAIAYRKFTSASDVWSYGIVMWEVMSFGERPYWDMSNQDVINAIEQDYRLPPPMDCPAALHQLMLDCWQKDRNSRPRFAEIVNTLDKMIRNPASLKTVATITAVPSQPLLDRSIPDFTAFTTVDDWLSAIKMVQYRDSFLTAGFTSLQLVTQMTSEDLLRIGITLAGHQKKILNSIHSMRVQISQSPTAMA

[12] = target: FGFR1 (UniProt P11362); test: as above
FGFR1, sequence (P11362 whole entry, looked up): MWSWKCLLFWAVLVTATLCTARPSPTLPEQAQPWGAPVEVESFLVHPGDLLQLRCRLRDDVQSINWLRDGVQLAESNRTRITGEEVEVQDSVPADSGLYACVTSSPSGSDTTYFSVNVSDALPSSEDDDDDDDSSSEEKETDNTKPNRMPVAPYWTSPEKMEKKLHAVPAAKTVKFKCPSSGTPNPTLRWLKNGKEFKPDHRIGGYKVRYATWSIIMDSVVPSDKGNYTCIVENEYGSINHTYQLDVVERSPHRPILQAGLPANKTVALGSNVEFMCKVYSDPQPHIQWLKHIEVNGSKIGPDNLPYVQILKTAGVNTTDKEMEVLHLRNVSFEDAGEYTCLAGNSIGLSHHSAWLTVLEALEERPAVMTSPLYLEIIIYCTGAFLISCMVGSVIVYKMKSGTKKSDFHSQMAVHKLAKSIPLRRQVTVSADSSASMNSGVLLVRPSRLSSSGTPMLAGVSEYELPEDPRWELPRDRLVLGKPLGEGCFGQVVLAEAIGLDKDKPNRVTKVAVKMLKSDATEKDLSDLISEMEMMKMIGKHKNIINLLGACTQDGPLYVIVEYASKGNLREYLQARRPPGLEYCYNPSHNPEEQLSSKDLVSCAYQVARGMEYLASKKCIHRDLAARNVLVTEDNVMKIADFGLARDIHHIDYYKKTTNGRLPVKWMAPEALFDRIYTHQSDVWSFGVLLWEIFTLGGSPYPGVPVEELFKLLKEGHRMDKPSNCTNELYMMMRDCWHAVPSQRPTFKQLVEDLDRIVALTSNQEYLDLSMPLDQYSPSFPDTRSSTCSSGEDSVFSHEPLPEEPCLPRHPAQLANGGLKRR

[13] = target: Fyn (UniProt P06241); test: as above
Fyn, sequence (P06241 whole entry, looked up): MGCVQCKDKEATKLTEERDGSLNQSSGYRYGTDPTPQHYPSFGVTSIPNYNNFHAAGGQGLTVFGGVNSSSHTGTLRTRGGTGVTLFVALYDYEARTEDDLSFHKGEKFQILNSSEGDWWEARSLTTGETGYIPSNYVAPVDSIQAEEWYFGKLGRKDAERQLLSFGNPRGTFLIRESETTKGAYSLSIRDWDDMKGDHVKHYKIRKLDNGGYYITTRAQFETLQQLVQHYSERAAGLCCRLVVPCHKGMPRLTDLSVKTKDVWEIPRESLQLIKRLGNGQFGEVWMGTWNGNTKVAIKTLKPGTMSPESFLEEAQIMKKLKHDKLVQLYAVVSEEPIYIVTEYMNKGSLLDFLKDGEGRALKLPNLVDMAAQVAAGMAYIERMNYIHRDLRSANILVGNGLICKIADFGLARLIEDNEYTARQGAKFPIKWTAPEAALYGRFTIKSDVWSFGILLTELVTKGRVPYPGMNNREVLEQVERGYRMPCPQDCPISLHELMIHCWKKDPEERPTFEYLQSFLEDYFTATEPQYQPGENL

[14] = target: Fes (UniProt P07332); test: as above
Fes, sequence (P07332 whole entry, looked up): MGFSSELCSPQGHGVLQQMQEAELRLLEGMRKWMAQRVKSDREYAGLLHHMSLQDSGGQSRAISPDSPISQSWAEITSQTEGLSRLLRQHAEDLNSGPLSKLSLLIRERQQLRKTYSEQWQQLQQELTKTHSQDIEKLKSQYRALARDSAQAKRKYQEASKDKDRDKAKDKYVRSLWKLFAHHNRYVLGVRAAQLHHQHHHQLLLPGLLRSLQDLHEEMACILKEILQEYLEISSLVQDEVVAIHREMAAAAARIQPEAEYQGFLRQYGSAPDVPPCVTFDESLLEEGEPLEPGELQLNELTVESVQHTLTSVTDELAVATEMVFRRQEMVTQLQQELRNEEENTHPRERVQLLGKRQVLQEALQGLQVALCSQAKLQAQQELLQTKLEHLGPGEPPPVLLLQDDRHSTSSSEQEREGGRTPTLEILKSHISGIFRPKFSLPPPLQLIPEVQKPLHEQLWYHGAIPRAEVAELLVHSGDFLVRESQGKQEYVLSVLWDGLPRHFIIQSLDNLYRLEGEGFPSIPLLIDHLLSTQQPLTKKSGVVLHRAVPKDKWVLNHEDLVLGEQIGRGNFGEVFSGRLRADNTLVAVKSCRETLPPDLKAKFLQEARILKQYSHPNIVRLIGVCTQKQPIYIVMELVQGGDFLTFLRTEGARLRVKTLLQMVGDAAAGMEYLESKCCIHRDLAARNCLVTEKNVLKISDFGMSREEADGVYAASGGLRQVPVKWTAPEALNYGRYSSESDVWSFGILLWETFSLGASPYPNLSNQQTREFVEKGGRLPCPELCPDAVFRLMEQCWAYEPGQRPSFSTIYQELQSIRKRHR

[15] = target: Hck (UniProt P08631); test: as above
Hck, sequence (P08631 whole entry, looked up): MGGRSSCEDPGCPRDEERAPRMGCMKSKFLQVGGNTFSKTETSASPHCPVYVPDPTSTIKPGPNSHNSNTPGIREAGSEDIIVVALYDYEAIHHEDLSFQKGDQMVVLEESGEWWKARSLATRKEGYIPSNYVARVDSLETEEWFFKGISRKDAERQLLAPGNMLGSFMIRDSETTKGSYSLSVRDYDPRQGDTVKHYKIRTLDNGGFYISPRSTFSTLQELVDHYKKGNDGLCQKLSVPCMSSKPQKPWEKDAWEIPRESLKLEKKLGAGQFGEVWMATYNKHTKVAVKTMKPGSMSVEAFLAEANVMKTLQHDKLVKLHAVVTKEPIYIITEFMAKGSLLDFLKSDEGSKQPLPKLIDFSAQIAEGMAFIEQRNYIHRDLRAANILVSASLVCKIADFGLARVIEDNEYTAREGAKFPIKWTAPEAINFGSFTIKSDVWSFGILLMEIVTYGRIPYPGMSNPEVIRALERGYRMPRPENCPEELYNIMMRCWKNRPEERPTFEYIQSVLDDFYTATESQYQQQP

[16] = target: FGFR3 (UniProt P22607); test: as above
FGFR3, sequence (P22607 whole entry, looked up, the tested form may be a part): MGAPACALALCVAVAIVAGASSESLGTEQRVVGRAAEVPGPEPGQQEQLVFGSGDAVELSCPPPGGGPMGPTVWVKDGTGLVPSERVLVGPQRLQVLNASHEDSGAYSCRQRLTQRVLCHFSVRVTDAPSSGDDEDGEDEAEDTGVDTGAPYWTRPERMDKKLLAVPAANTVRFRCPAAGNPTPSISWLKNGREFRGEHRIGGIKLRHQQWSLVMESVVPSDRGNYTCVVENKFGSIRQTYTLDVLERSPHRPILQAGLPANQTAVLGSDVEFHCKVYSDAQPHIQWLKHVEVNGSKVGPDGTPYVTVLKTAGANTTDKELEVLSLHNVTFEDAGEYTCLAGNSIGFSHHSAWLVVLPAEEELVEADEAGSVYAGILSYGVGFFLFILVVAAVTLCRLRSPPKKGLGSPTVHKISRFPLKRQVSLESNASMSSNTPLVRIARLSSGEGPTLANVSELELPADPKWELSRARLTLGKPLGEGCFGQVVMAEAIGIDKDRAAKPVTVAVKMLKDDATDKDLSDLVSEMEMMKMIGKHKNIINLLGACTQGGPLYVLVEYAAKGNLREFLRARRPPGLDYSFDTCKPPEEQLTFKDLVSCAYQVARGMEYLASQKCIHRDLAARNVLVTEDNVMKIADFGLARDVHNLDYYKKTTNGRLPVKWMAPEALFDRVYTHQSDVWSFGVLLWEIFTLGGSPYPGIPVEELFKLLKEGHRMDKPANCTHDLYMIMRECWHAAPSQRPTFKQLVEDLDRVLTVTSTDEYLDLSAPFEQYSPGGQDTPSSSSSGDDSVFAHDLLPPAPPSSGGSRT
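Wherever SH2 binding enrichment of the phosphorylated peptide, bacterial display is given: peptide library displayed on the E. coli surface as eCPX fusions, selected cells deep-sequenced, score is each peptide's frequency after selection divided by its frequency in the input.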
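Wherever phosphorylation enrichment, bacterial display is given: 11-residue human phosphosite peptides and single-mutation variants displayed on the E. coli surface, counted by deep sequencing, each peptide's frequency after selection divided by its frequency in the unselected input library; frequency after pTyr selection over input frequency; kinase dosed for 20-30% of maximal phosphorylation in three min.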

Grb2 SH2, sequence (P62993 whole entry, looked up): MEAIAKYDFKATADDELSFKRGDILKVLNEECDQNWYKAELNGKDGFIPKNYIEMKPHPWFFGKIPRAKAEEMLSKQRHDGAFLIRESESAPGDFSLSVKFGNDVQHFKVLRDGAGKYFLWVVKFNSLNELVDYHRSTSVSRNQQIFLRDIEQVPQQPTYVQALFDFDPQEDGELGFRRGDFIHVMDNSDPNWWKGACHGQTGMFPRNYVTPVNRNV

| Sequence | SH2 binding enrichment [1] | SH2 binding enrichment [2] | SH2 binding enrichment [3] | phosphorylation enrichment [4] | phosphorylation enrichment [5] | phosphorylation enrichment [6] | phosphorylation enrichment [7] | phosphorylation enrichment [8] | phosphorylation enrichment [9] | phosphorylation enrichment [10] | phosphorylation enrichment [11] | phosphorylation enrichment [12] | phosphorylation enrichment [13] | phosphorylation enrichment [14] | phosphorylation enrichment [15] | phosphorylation enrichment [16] |
| --- | --- | --- | --- | --- | --- | --- | --- | --- | --- | --- | --- | --- | --- | --- | --- | --- |
| GVRYTYTIDGS [DCX_Y105_I104T] | 5.17 | 1.43 | 1.07 | 0.986 | 0.981 | 0.447 | 0.634 | 0.623 | 0.429 | 0.56 | 0.562 | 0.521 | 0.543 | 1.08 | 0.483 | 0.758 |
| GVTLLCYGRYN [ADGRD1_Y85_Y85C] | 0.806 | 0.486 | 0.753 | 1.31 | 1.23 | 0.397 | 0.975 | 0.682 | 0.563 | 0.97 | 0.707 | 0.435 | 0.708 | 1.55 | 0.508 | 0.908 |
| GYCSWYRGWAP [TIMP3_Y195] | 0.715 | 0.502 | 0.655 | 1.38 | 1.32 | 0.975 | 1.04 | 0.712 | 0.691 | 1.33 | 0.8 | 0.807 | 0.671 | 1.53 | 1.25 | 1 |
| GYQPDYGQPAG [SYP_Y278] | 0.702 | 0.52 | 0.657 | 0.701 | 0.564 | 0.334 | 0.556 | 0.378 | 0.38 | 0.342 | 0.442 | 0.465 | 0.384 | 0.671 | 0.409 | 0.551 |
| GYQPEYGQPAG [SYP_Y278_D277E] | 0.553 | 0.495 | 0.801 | 0.662 | 0.725 | 0.467 | 0.466 | 0.451 | 0.487 | 0.443 | 0.451 | 0.401 | 0.426 | 0.851 | 0.419 | 0.659 |
| HCFAAYFQQGD [GPI_Y351_R347C] | 0.929 | 0.673 | 0.984 | 1.72 | 2.05 | 1.03 | 1.98 | 0.906 | 1.08 | 1.23 | 1.05 | 0.914 | 0.755 | 2.51 | 0.748 | 1.28 |
| HFGCVYRGTLL [MET_Y1093_H1094R] | 0.963 | 0.565 | 0.868 | 1.44 | 1.77 | 0.573 | 1.28 | 0.87 | 0.702 | 1.97 | 1.04 | 0.884 | 0.862 | 1.66 | 0.607 | 1.06 |
| HKLSSYEFDFE [BTK_Y40_Y39S_YF] | 0.719 | 3 | 0.974 | 1.83 | 2.13 | 0.865 | 1.43 | 0.75 | 0.664 | 1.09 | 0.902 | 0.889 | 0.777 | 1.51 | 0.565 | 0.844 |
| HLEKKYVRRDS [CSF1R_Y708] | 1.25 | 0.876 | 1.02 | 2.92 | 6.5 | 6.59 | 2.1 | 2.23 | 1.67 | 4.16 | 1.61 | 2.42 | 1.64 | 4.2 | 1.23 | 0.997 |
| HLVLNYGVCFC [JAK2_Y613_V617F] | 1.15 | 0.757 | 0.884 | 2.91 | 1.53 | 0.575 | 1.29 | 2.33 | 0.982 | 0.914 | 1.67 | 1.2 | 1.11 | 2.32 | 1.04 | 1.77 |
| HMRLRYLAAEE [CEP120_Y884_Q879H] | 1.39 | 1.18 | 1.14 | 1.22 | 1.03 | 0.452 | 1.3 | 0.552 | 0.75 | 0.659 | 0.587 | 0.412 | 0.722 | 1.89 | 0.53 | 0.939 |
| HPYNSYTYPRL [PAK5_Y316_S312P] | 0.677 | 7.32 | 0.813 | 1.2 | 0.429 | 2.57 | 0.374 | 0.531 | 0.674 | 1.3 | 0.731 | 0.998 | 0.968 | 0.875 | 0.984 | 0.962 |
| HQEPVYSVAFS [TBL1X_Y509] | 0.856 | 0.533 | 1.08 | 4.16 | 0.688 | 14.5 | 30.7 | 31.1 | 24.1 | 9.13 | 25.8 | 4.88 | 15.6 | 2.74 | 14.2 | 3.89 |
| HQKKPYCHAHN [NRAP_Y53] | 1.79 | 1.29 | 1.64 | 1.82 | 3.5 | 0.623 | 2.3 | 0.8 | 1.85 | 0.591 | 1.08 | 0.983 | 0.828 | 1.62 | 1.05 | 2.09 |
| HRGFLYLAIEY [TEK_Y899_Y897F] | 0.77 | 0.45 | 1.15 | 1.5 | 1.49 | 0.703 | 1.47 | 0.541 | 0.791 | 0.541 | 0.986 | 0.549 | 0.54 | 1.76 | 0.743 | 0.891 |
| HRGSLYLAIEY [TEK_Y899_Y897S] | 0.501 | 0.375 | 0.646 | 1.87 | 2.2 | 0.834 | 2.14 | 0.776 | 0.853 | 0.734 | 0.819 | 0.581 | 0.58 | 2.15 | 0.798 | 1.3 |
